Data taken from publication PMC6128827.

Molecular target: three-helix bundle composed of syntaxin-1A and SNAP-25 (rat) (UniProt P32851)
Assay: magnetic tweezers; single pre-assembled SNARE complex held between a PEG-biotin glass surface (NeutrAvidin) and an anti-digoxigenin magnetic bead by two 510-bp DNA handles; force ramps at 1 pN/s, force jumps and 1.2-kHz tracking at 10-16 pN; PBS pH 7.4 with 2.5 uM free SNAP-25; no Cpx

Work on “rat synaptobrevin-2 (2–97, L32C/I97C) (from UniProt P63045 2-97) (domain or fragment)” yielded an average unzipping force (without Cpx) of 14.4 pN.
